{"source": "patent US7282356B2", "about": "“D-aminoacylase mutants” (Daicel Chemical Industries, Ltd., priority 2002, dated 2007)", "molecules": {"B1": {"name": "wild-type: D-aminoacylase derived from Alcaligenes denitrificans subsp. xylosoxydans MI-4, SEQ ID NO: 1 (protein)", "chain": "MSQSDSQPFDLLLAGGTLIDGSNTPGRRADLGVRGDRIAAIGDLSDAAAHTRVDVSGLVVAPGFIDSHTHDDNYLLRRRDMTPKISQGVTTVVTGNCGISLAPLAHANPPAPLDLLDEGGSYRFERFADYLDALRATPAAVNAACMVGHSTLRAAVMPDLQRAATDEEIAAMRDLAEEAMASGAIGISTGAFYPPAARATTEEIIEVCRPLSAHGGIYATHMRDEGEHIVAALEETFRIGRELDVPVVISHHKVMGQPNFGRSRETLPLIEAAMARQDVSLDAYPYVAGSTMLKQDRVLLAGRTIITWCKPFPELSGRDLDEVAAERGKSKYDVVPELQPAGAIYFMMDEPDVQRILAFGPTMIGSDGLPHDERPHPRLWGTFPRVLGHYARDLGLFPLETAVWKMTGLTAARFGLAGRGQLQAGYFADLVVFDPATVADTATFEHPTERAAGIHSVYVNGAPVWQEQAFTGQHAGRVLARTAA", "modifications": "Alcaligenes denitrificans subsp. xylosoxydans MI-4"}}, "key": {"[1]": {"assay": "Second generation mutants: activity of producing D-tryptophan (TNBS Abs. 420 / OD600)", "type": "cell-based, E. coli JM109", "conditions": "5% N-acetyl-DL-tryptophan and 2% N-acetyl-L-tryptophan", "experimental": "Three types of the E. coli transformant libraries obtained in Example 11 were inoculated on an LB agar plate. Each colony grown on the plate was inoculated with a toothpick to a well of a microtiter plate which contained 150 μl of LB culture medium containing 50 μg/ml ampicillin and 0.02 mM IPTG, and then the microtiter plate was covered with Breathable Sealing Membrane (Nalgene). The microtiter plate was incubated at 37° C. for 18 hours while being shaken. 10 μl of the culture medium solution was added to the reaction solution containing 300 mM Tris-hydrochloride buffer (pH 8.0), 0.1% cetylpyridinium bromide, 5% N-acetyl-DL-tryptophan, 1% N-acetyl-L-tryptophan, and distilled water in the wells of a microtiter plate. The plate was incubated at 25° C. for 1 hour while being shaken. Then, D-tryptophan produced from N-acetyl-D-tryptophan was quantified by colorimetry according to the TNBS method. […]\nThe amino acid substitution in each mutant, and the effect of the amino acid substitution, which was estimated as an activity of producing D-tryptophan in the presence of 5% N-acetyl-DL-tryptophan and 2% N-acetyl-L-tryptophan, are shown in Table 2. The “activity”, as used herein, refers to “a colorimetric value of the reaction solution determined at the end of reaction by the TNBS method (Abs. 420)/the degree of bacterial growth (OD600)”."}, "[2]": {"assay": "Conversion of 5% or 10% N-acetyl-DL-tryptophan by E. coli transformant cells", "type": "cell-based, E. coli HB101", "conditions": "25° C.", "experimental": "Cells of E. coli HB101 strain were transformed with the expression plasmids for the three mutant D-aminoacylases AD-0103, AD-1064, and AD-1927 obtained in Example 8, whose inhibition was impaired. The E. coli cells were inoculated in liquid LB media, and cultured at 30° C. overnight. Then, the transformants were inoculated in 2x YT (2% Bacto tryptone, 1% Bacto-yeast extract, 1.0% sodium chloride, pH 7.2) media and incubated at 30° C. for 18 hours. The E. coli cells were harvested. The bacterial cells were used to hydrolyze N-acetyl-D-tryptophan.\nCells of the respective E. coli transformants prepared from 5 ml of liquid culture media were incubated in 10 ml of reaction solutions which comprised 300 mM Tris-hydrochloride buffer (pH 8.0) containing 5% or 10% N-acetyl-DL-tryptophan at 25° C. while being stirred. An E. coli HB101 strain containing the plasmid pSL-ADD6 with the wild-type D-aminoacylase was used as a control. In assays using 5% N-acetyl-DL-tryptophan as the substrate, the yield was about 50% with the wild type, whereas the yield was about 100% with any one of the four mutants. In assays using 10% N-acetyl-DL-tryptophan as the substrate, the yield was about 15% with the wild type, whereas the yield was about 25% with each of the mutants AD-0103 and AD-1089; the yield was about 40% with the mutant AD-1064, and the yield was about 60% with the mutant AD-1927. […]"}, "[3]": {"conditions": "according to references; cited from earlier work"}, "[4]": {"assay": "Production of D-tryptophan from high concentrations of N-acetyl-DL-tryptophan using culture medium of recombinant E. coli", "type": "cell-based, E. coli HB101", "experimental": "Cells of E. coli HB101 strain were transformed with the plasmid pSL-AD10 expressing the mutant D-aminoacylase 3AD-0089 (containing the amino acid substitution of A154V/M347A/R374F) obtained in Example 18. The transformant was inoculated to a liquid LB medium, and cultured at 30° C. overnight. Then, the E. coli was inoculated to a culture medium (2x YT) and incubated at 30° C. for 18 hours. N-acetyl-D-tryptophan was hydrolyzed using the culture medium solution of the E. coli.\n400 mL of a reaction solution containing the culture medium solution of the E. coli and 15% N-acetyl-DL-tryptophan was incubated at 30° C. for 24 hours while being stirred. E. coli HB101 strain containing the wild type […] was used as a control. While with the wild type the yield was about 4%, with the recombinant E. coli containing pSL-AD10 the yield was 90% or higher (FIG. 1).\nThe hydrolysis was carried out in the presence of 20% N-acetyl-DL-tryptophan by the same method as described in Example 26. The yield was 90% or higher with the recombinant E. coli having the plasmid pSL-AD10 that contains the DNA encoding the mutant D-aminoacylase 3AD-0089 (containing the amino acid substitution of A154V/M347A/R374F). The optical purity of tryptophan produced was analyzed by the procedure described below. […] The elution was detected with the optical density at 280 nm. […]"}, "[5]": {"assay": "Hydrolysis of 15% N-acetyl-DL-tryptophan by E. coli cells", "type": "cell-based, E. coli HB101", "conditions": "25° C., 24 hours", "experimental": "3AD-0013(M347Q/R374H) and 3AD-0089(A154V/M347A/R374P) are mutants with two amino acid substitutions and with three amino acid substitutions of the third generation mutants obtained in Example 17, respectively. Cells of E. coli HB101 strain transformed with plasmids expressing the two types of mutants were each inoculated to a liquid LB medium, and cultured at 30° C. overnight. Then, the E. coli cells were inoculated to a culture medium (2x YT) and incubated at 30° C. for 18 hours. The cells of E. coli were harvested, and used to hydrolyze N-acetyl-D-tryptophan.\n10 ml of a reaction solution containing E. coli cells prepared from 5 mL of culture medium solution, 300 mM Tris-hydrochloride buffer (pH 8.0), and 15% N-acetyl-DL-tryptophan was incubated at 25° C. for 24 hours while being stirred. E. coli HB101 strain containing the wild-type pSL-ADD6 was used as a control. While the yield was about 15% with the wild type, the yields were about 30% and about 80% with the mutant 3AD-0013 having two amino acid substitutions and the mutant 3AD-0089 having three amino acid substitutions, respectively. Thus, the third generation mutants obtained in […] were confirmed to have higher processability in the hydrolysis of higher concentrations of N-acetyl-DL-tryptophan."}}}
{"molecule": "B1", "values": [{"measurement": "Activity of producing D-tryptophan", "setting": "[1]", "result": 2.58}, {"measurement": "yield", "setting": "[2]; 5% N-acetyl-DL-tryptophan", "result": "about 50%"}, {"measurement": "yield", "setting": "[2]; 10% N-acetyl-DL-tryptophan", "result": "about 15%"}, {"measurement": "activity to N-acetyl-D-tryptophan", "setting": "[3]", "result": "≤ 20", "unit": "U/mg"}, {"measurement": "yield", "setting": "[4]; 15% N-acetyl-DL-tryptophan, 30° C., 24 hours, culture medium solution", "result": "about 4%"}, {"measurement": "D-tryptophan produced", "setting": "[4]; from 150 g/l N-acetyl-DL-tryptophan (75 g/l N-acetyl-D-tryptophan), FIG. 1", "result": "about 2.5 g/l"}, {"measurement": "yield", "setting": "[5]", "result": "about 15%"}]}
